Laboratory results reported in patent US20140274782A1, “AFFINITY REAGENTS AND METHODS FOR DETECTION, PURIFICATION, AND PROTEOMIC ANALYSIS OF METHYLATED PROTEINS” (The Board of Trustees of the Leland Stanford Junior …, priority 2013, published 2014).
Each block holds one molecule with its values, some of them ahead of it.

Key:
3×MBT domain of L3MBTL1 = experiment: Triple SILAC pull-down, 3xMBT/3xMBTD355N ratio (cytoplasmic, nuclear and chromatin fractions of 293T cells); type: binding, human; settings: SILAC ratio, pull-down 3xMBT vs 3xMBTD355N; for 3xMBT/D355N UNC Heavy: experiment with UNC0638 in heavy SILAC media; for 3xMBT/D355N UNC Light: experiment with UNC0638 in light SILAC media;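 on all read-outs here: proteins quantified with MaxQuant, requiring at least two unique peptides and quantification in both label directions, normalized to the mean of proteins from a digested loading control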
G9a and GLP = molecular target: T1, G9a and GLP (Homo sapiens, UniProt Q96KQ7+Q9H9B1); experiment: Triple SILAC pull-down after UNC0638 treatment of 293T cells, DMSO/UNC0638 ratio of protein captured by 3×MBT; type: cell-based; design: cells were treated for 24 hours with UNC0638 at 2.5 μM or DMSO vehicle control; endogenous in cells; host or cells: HEK 293T; settings: for Relative to UNC0638 UNC Heavy / Relative to UNC0638 UNC Light: SILAC ratio DMSO/UNC0638 of protein pulled down with 3xMBT; for Relative to UNC0638 UNC Heavy: UNC0638 in heavy SILAC media; for Relative to UNC0638 UNC Light: UNC0638 in light SILAC media; for Relative to UNC0638 Average: average of UNC Light and UNC Heavy experiments;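 on all read-outs here: mass spectrometry (Q-Exactive) SILAC quantitation, DMSO/UNC0638 ratio computed after subtracting 3×MBTD355N mutant pull-down background, only proteins with at least twofold 3×MBT over mutant signal considered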
T1 sequence (Q96KQ7 2-1210 limits assumed): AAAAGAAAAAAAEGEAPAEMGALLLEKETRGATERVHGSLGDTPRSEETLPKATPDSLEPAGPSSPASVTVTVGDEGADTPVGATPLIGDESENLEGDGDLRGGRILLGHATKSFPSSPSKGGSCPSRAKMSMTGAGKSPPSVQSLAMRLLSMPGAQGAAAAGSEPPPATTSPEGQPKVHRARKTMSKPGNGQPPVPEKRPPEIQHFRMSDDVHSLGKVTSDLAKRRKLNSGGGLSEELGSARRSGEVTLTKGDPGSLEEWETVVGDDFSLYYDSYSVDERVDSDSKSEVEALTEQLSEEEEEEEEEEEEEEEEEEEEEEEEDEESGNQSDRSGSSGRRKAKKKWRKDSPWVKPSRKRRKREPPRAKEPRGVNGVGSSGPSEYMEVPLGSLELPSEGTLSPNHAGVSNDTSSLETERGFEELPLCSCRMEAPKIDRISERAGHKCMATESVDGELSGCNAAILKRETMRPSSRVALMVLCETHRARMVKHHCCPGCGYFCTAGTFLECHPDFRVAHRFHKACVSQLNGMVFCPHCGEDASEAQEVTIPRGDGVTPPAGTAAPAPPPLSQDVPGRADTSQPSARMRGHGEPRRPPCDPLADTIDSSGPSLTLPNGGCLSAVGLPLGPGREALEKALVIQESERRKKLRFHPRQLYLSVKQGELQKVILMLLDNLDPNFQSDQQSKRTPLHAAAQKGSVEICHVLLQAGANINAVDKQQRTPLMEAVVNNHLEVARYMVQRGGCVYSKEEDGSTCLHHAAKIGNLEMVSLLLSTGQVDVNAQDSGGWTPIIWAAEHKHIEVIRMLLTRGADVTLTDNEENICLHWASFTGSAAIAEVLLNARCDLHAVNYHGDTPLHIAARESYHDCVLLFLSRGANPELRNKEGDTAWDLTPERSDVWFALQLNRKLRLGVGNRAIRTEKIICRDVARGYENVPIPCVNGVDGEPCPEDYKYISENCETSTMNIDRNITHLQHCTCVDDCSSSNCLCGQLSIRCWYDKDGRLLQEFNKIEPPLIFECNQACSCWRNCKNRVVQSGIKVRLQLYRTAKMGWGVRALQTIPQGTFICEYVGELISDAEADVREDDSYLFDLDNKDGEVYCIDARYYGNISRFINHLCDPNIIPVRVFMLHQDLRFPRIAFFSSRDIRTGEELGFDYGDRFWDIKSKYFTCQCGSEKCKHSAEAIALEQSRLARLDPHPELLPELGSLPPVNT
T1 sequence (Q9H9B1 2-1298 limits assumed): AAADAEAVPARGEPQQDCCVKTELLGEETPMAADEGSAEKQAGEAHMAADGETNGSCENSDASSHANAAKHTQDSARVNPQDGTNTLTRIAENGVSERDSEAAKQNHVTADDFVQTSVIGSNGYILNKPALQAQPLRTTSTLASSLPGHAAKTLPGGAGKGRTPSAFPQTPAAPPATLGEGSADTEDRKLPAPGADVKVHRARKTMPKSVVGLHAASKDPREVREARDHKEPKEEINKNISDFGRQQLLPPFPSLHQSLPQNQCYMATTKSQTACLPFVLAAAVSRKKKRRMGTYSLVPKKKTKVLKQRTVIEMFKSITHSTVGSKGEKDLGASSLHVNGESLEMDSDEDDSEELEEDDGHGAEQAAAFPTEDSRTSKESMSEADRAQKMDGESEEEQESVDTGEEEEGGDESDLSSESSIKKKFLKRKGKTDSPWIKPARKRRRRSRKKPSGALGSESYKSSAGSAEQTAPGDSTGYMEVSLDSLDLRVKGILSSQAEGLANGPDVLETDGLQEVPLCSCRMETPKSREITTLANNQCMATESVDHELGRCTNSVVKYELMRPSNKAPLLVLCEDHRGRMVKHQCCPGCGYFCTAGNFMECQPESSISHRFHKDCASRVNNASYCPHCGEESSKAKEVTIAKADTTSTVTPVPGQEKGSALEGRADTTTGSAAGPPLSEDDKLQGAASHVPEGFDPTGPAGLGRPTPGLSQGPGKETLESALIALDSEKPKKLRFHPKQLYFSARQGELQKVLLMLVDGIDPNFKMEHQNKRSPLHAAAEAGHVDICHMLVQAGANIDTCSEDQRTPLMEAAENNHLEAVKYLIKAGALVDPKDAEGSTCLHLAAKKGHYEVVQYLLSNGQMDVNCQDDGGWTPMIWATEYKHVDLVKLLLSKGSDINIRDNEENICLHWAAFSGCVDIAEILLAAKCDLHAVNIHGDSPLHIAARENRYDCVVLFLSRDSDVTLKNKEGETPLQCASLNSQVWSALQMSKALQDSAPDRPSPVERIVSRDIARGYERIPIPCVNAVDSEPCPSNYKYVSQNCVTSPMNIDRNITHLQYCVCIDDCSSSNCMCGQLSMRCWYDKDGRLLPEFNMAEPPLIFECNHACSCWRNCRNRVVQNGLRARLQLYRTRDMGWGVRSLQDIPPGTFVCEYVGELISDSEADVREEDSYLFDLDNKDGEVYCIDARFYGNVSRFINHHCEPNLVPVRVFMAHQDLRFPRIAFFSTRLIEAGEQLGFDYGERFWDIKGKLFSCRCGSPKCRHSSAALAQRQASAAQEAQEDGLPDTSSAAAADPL

Relative to UNC0638 UNC Heavy (G9a and GLP): 0.26 log base 2
Relative to UNC0638 UNC Light (G9a and GLP): 0.08 log base 2
Relative to UNC0638 Average (G9a and GLP): 0.17 log base 2
B1: CTTN (protein, UniProt Q14247 1-550, looked up)
Src substrate cortactin: MWKASAGHAVSIAQDDAGADDWETDPDFVNDVSEKEQRWGAKTVQGSGHQEHINIHKLRENVFQEHQTLKEKELETGPKASHGYGGKFGVEQDRMDKSAVGHEYQSKLSKHCSQVDSVRGFGGKFGVQMDRVDQSAVGFEYQGKTEKHASQKDYSSGFGGKYGVQADRVDKSAVGFDYQGKTEKHESQRDYSKGFGGKYGIDKDKVDKSAVGFEYQGKTEKHESQKDYVKGFGGKFGVQTDRQDKCALGWDHQEKLQLHESQKDYKTGFGGKFGVQSERQDSAAVGFDYKEKLAKHESQQDYSKGFGGKYGVQKDRMDKNASTFEDVTQVSSAYQKTVPVEAVTSKTSNIRANFENLAKEKEQEDRRKAEAERAQRMAKERQEQEEARRKLEEQARAKTQTPPVSPAPQPTEERLPSSPVYEDAASFKAELSYRGPVSGTEPEPVYSMEAADYREASSQQGLAYATEAVYESAEAPGHYPAEDSTYDEYENDLGITAVALYDYQAAGDDEISFDPDDIITNIEMIDDGWWRGVCKGRYGLFPANYVELRQ
3xMBT/D355N UNC Heavy (3×MBT domain of L3MBTL1): 1.52 log base 2
3xMBT/D355N UNC Light (3×MBT domain of L3MBTL1): 2.75 log base 2

Relative to UNC0638 UNC Heavy (G9a and GLP): 0.21 log base 2
Relative to UNC0638 UNC Light (G9a and GLP): 0.12 log base 2
Relative to UNC0638 Average (G9a and GLP): 0.16 log base 2
B2: DDX17 (protein, UniProt Q92841 1-729, looked up)
Probable ATP-dependent RNA …: MPTGFVAPILCVLLPSPTREAATVASATGDSASERESAAPAAAPTAEAPPPSVVTRPEPQALPSPAIRAPLPDLYPFGTMRGGGFGDRDRDRDRGGFGARGGGGLPPKKFGNPGERLRKKKWDLSELPKFEKNFYVEHPEVARLTPYEVDELRRKKEITVRGGDVCPKPVFAFHHANFPQYVMDVLMDQHFTEPTPIQCQGFPLALSGRDMVGIAQTGSGKTLAYLLPAIVHINHQPYLERGDGPICLVLAPTRELAQQVQQVADDYGKCSRLKSTCIYGGAPKGPQIRDLERGVEICIATPGRLIDFLESGKTNLRRCTYLVLDEADRMLDMGFEPQIRKIVDQIRPDRQTLMWSATWPKEVRQLAEDFLRDYTQINVGNLELSANHNILQIVDVCMESEKDHKLIQLMEEIMAEKENKTIIFVETKRRCDDLTRRMRRDGWPAMCIHGDKSQPERDWVLNEFRSGKAPILIATDVASRGLDVEDVKFVINYDYPNSSEDYVHRIGRTARSTNKGTAYTFFTPGNLKQARELIKVLEEANQAINPKLMQLVDHRGGGGGGGGRSRYRTTSSANNPNLMYQDECDRRLRGVKDGGRRDSASYRDRSETDRAGYANGSGYGSPNSAFGAQAGQYTYGQGTYGAAAYGTSSYTAQEYGAGTYGASSTTSTGRSSQSSSQQFSGIGRSGQQPQPLMSQQFAQPPGATNMIGYMGQTAYQYPPPPPPPPPSRK
3xMBT/D355N UNC Heavy (3×MBT domain of L3MBTL1): 2.61 log base 2
3xMBT/D355N UNC Light (3×MBT domain of L3MBTL1): 2.86 log base 2

Relative to UNC0638 UNC Heavy (G9a and GLP): 0.09 log base 2
Relative to UNC0638 UNC Light (G9a and GLP): 0.25 log base 2
Relative to UNC0638 Average (G9a and GLP): 0.17 log base 2
B3: HNRNPA1 (protein, UniProt P09651 1-372, looked up)
Heterogeneous nuclear …: MSKSESPKEPEQLRKLFIGGLSFETTDESLRSHFEQWGTLTDCVVMRDPNTKRSRGFGFVTYATVEEVDAAMNARPHKVDGRVVEPKRAVSREDSQRPGAHLTVKKIFVGGIKEDTEEHHLRDYFEQYGKIEVIEIMTDRGSGKKRGFAFVTFDDHDSVDKIVIQKYHTVNGHNCEVRKALSKQEMASASSSQRGRSGSGNFGGGRGGGFGGNDNFGRGGNFSGRGGFGGSRGGGGYGGSGDGYNGFGNDGGYGGGGPGYSGGSRGYGSGGQGYGNQGSGYGGSGSYDSYNNGGGGGFGGGSGSNFGGGGSYNDFGNYNNQSSNFGPMKGGNFGGRSSGPYGGGGQYFAKPRNQGGYGGSSSSSSYGSGRRF
3xMBT/D355N UNC Heavy (3×MBT domain of L3MBTL1): 3.75 log base 2
3xMBT/D355N UNC Light (3×MBT domain of L3MBTL1): 4.25 log base 2

Relative to UNC0638 UNC Heavy (G9a and GLP): 0.21 log base 2
Relative to UNC0638 UNC Light (G9a and GLP): 0.12 log base 2
Relative to UNC0638 Average (G9a and GLP): 0.17 log base 2
B4: SEPT2 (protein, UniProt Q15019 1-361, looked up)
Septin-2: MSKQQPTQFINPETPGYVGFANLPNQVHRKSVKKGFEFTLMVVGESGLGKSTLINSLFLTDLYPERVIPGAAEKIERTVQIEASTVEIEERGVKLRLTVVDTPGYGDAINCRDCFKTIISYIDEQFERYLHDESGLNRRHIIDNRVHCCFYFISPFGHGLKPLDVAFMKAIHNKVNIVPVIAKADTLTLKERERLKKRILDEIEEHNIKIYHLPDAESDEDEDFKEQTRLLKASIPFSVVGSNQLIEAKGKKVRGRLYPWGVVEVENPEHNDFLKLRTMLITHMQDLQEVTQDLHYENFRSERLKRGGRKVENEDMNKDQILLEKEAELRRMQEMIARMQAQMQMQMQGGDGDGGALGHHV
3xMBT/D355N UNC Heavy (3×MBT domain of L3MBTL1): 1.89 log base 2
3xMBT/D355N UNC Light (3×MBT domain of L3MBTL1): 2.49 log base 2

Relative to UNC0638 UNC Heavy (G9a and GLP): 0.08 log base 2
Relative to UNC0638 UNC Light (G9a and GLP): 0.25 log base 2
Relative to UNC0638 Average (G9a and GLP): 0.17 log base 2
B5: SFPQ (protein, UniProt P23246 1-707, looked up)
Splicing factor, proline- and …: MSRDRFRSRGGGGGGFHRRGGGGGRGGLHDFRSPPPGMGLNQNRGPMGPGPGQSGPKPPIPPPPPHQQQQQPPPQQPPPQQPPPHQPPPHPQPHQQQQPPPPPQDSSKPVVAQGPGPAPGVGSAPPASSSAPPATPPTSGAPPGSGPGPTPTPPPAVTSAPPGAPPPTPPSSGVPTTPPQAGGPPPPPAAVPGPGPGPKQGPGPGGPKGGKMPGGPKPGGGPGLSTPGGHPKPPHRGGGEPRGGRQHHPPYHQQHHQGPPPGGPGGRSEEKISDSEGFKANLSLLRRPGEKTYTQRCRLFVGNLPADITEDEFKRLFAKYGEPGEVFINKGKGFGFIKLESRALAEIAKAELDDTPMRGRQLRVRFATHAAALSVRNLSPYVSNELLEEAFSQFGPIERAVVIVDDRGRSTGKGIVEFASKPAARKAFERCSEGVFLLTTTPRPVIVEPLEQLDDEDGLPEKLAQKNPMYQKERETPPRFAQHGTFEYEYSQRWKSLDEMEKQQREQVEKNMKDAKDKLESEMEDAYHEHQANLLRQDLMRRQEELRRMEELHNQEMQKRKEMQLRQEEERRRREEEMMIRQREMEEQMRRQREESYSRMGYMDPRERDMRMGGGGAMNMGDPYGSGGQKFPPLGGGGGIGYEANPGVPPATMSGSMMGSDMRTERFGQGGAGPVGGQGPRGMGPGTPAGYGRGREEYEGPNKKPRF
3xMBT/D355N UNC Heavy (3×MBT domain of L3MBTL1): 3.19 log base 2
3xMBT/D355N UNC Light (3×MBT domain of L3MBTL1): 3.86 log base 2
